Laboratory results as given in patent US20150139900A1 (BIOARCTIC NEUROSCIENCE, published 2015).

Assays:
[1] = molecular target: α-synuclein monomers (human, UniProt P37840 1-140); assay: competition ELISA, antigen in solution against plate coated with protofibrils
Method: (§1) Specifically, a high-binding ELISA microtiter plate was coated with 100 μl/well of 1 μg/ml of α-synuclein protofibril, diluted in 1×PBS, sealed with adhesive sealer and incubated overnight at +4° C. Then, the coating solution was discarded and the residual binding capacity of the plate was blocked by adding 200 μl/well of PBS-Tween 20 (0.05%). The sealed plate was incubated for 60 min at room temperature (R.T.) by shaking at 900 rpm.
(§2) Meanwhile, peptide solution was prepared in 1×PBS-Tween 20 (0.05%) by diluting α-synuclein monomers or protofibril to a concentration of 140 nM. A 10-step 3× dilution series of α-synuclein monomers and protofibrils was performed in a volume of 50 μl in a round bottomed, low protein binding microtiter plate. To this solution, 50 μl of the tested antibody diluted in PBS-Tween 20 (0.05%) to a concentration of 100 ng/ml was added and allowed to interact for 60 min at R.T. by shaking at 900 rpm. Sub sequentially, these pre-incubated samples were added to the washed (3× wash) coated high-binding plate and allowed to incubate for 15 min at R.T. without shaking. The ELISA plate was then washed to remove unbound antibodies.
(§3) Finally, the ELISA plate was washed to remove unbound antibodies and 100 μl of ALP-substrate were added to each well. The plate was kept dark during incubation at R.T. until a yellow color developed. Absorbance values were measured on continuous mode at a wavelength of 405 nm every 15 minutes up to 120 minutes.

[2] = molecular target: T1, HNE-stabilized human α-synuclein protofibrils (human, UniProt P37840 1-140); assay: competition ELISA
[3] = molecular target: ONE-stabilized human α-synuclein protofibrils (human, UniProt P37840 1-140); assay: competition ELISA
[4] = molecular target: T1, HNE-stabilized human α-synuclein …; assay: competition ELISA, antigen in solution against plate coated with protofibrils
Method: as §1, §2, §3

Measured: binding result

B1: mAb48B11/8 (antibody, V domains shown)
VH: EVQLQESGPSLVKPSQTLSLTCSVTGDSFTSGYWNWIRKFPGNKLEYMGYIRYSGNTYYNPSLKSRISITRDTSKNQYYLQLISVTTEDTATFYCARSYYDYDRAWFAYWGQGALVTVSA
VL: DVVMTQTPLSLPVSLGDQASISCRSSQSLVHSNGNTYLHWYLQKPGQSPKLLIYKVSNRFSGVPDRFSGSGSGTDFTLKISRVEAEDLGVYFCSQSTHVPWTFGGGTKLEIK
notes: Mouse monoclonal antibody from hybridoma; also called BA4
binds: [1] | [2] | [3]

B2: mAb38F11/2-8 (antibody, V domains shown)
VH: EVMLVESGGGLVKPGGSLKLSCAASGFTFSSYAMSWVRQTPEKRLEWVATISNGGSYTYYPDSVKGRFTISRDNAKNTLYLQMSSLRSEDTAMYYCARHSDYSGAWFAYWGQGTLVTVSA
VL: QIVLTQSPAIMSASPGEKVTISCSASSSVSYMYWYQQKPGSSPKPWIYRTSNLASGVPARFSGSGSGTSYSLTISSMEAEDAATYYCQQYHSYPYTFGGGTKLEIK
notes: Mouse monoclonal antibody from hybridoma; also called BA3
binds: [1] | [2] | [3]

B3: mAb49/G (antibody, V domains shown)
VH: EVQLVETGGGLVQPKGSLKLSCATSGFTFNTYAMNWVRQAPGKGLEWVARIRTKSNDYATYYADSVKGRITISRDDSQSMLYLQMNNLKTEDTAMYYCVRVGYRPYAMDYWGQGTSVTVSS
VL: DVLMTQTPLSLPVSLGDQASISCRSSQNIVHSNGNTYLEWYLQKPGQSPTLLIYKVSNRFSGVPDRFSGSGSGTDFTLKISRVEAEDLGVYYCFQGSHVPLTFGAGTKLELK
notes: Mouse monoclonal antibody from hybridoma, detected with anti-mouse IgG; constant regions are not; also called BA1
binds: [4] | [1] | [3]
